# Measured values taken from article PMC3756998, “Use of a Small Peptide Fragment as an Inhibitor of Insulin Fibrillation Process: A Study by High and Low Resolution Spectroscopy” (PLoS ONE, 2013).
# “And” between values parts separate entries of the source, which are not always exact repeats. Identical values can stand only once. “Also recorded” adds a separate entry of the source. Like-named read-outs stand apart in the source and are kept apart here. Ends that are not written are not given here.
# Experiments:
# insulin [1] = target: T1, insulin (Bos taurus, UniProt P01317); assay type: biochemical, bovine; details: pH 2.6
# T1 construct: Insulin consists of two polypeptide chains (Chain A –21 residues; Chain B –30 residues) held together by two disulphide bonds; purchased Sigma (St. Louis, MO)
# T1 sequence (P01317 25-54 limits assumed): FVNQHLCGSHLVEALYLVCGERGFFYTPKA
# T1 sequence (P01317 85-105 limits assumed): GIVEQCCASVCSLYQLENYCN
# insulin fibrils = assay type: biochemical, bovine; details: pH 2.6
# insulin [2] = target: T1, insulin; assay type: biochemical, bovine; details: pH 2.6; remark: listed apart in the source
# insulin [3] = target: T1, insulin; assay type: biochemical, bovine
# insulin [4] = target: T1, insulin; assay type: biochemical, bovine; details: pH 2.6; remark: listed apart in the source
# insulin [5] = target: T1, insulin; test: biochemical; assay type: binding, bovine; details: apparent Kd
# human red blood cells = details: red cells of human, 1 h, 250 µM
# insulin [6] = details: literature, cited from earlier work
# Source text: These agents routed via natural source or synthetic pathways are generally termed as amyloid inhibitors. The idea behind such anti-amyloid agent is to inhibit the creation of amyloidogenic aggregate and/to arrest the amyloid construction.
compound,measurement,setting,value
"Insulin: 51-residue protein hormone; bovine insulin, two chains held together by two disulphide bonds",Apparent Rate Constant,insulin [1],2.9 ± 0.13 h⁻¹
same,Lag Time,insulin [1],120 min and 120 ± 5 min
same,fibril morphology by TEM,insulin fibrils,branched insulin fibrils
same,helix content of insulin (CD),insulin [2],39%
same,"cross beta structure formation / helix loss of insulin (FT-IR, in words)",insulin [3],forms the cross beta structure indicative of fibrils beyond 2 h; also recorded: significant increases in the A1628/A1654 ratio was observed after 2 h of incubation
same,β-sheet content of mature fibrils (FT-IR),insulin [3],~60%
same,hydrodynamic radius,insulin [4],2.0 nm
same,size of insulin monomer formed,insulin [4],1.3 nm
same,size of large oligomer,insulin [4],24 nm
"NIVNVSLVK [NK9, NIVNVSLVK]",Kd,insulin [5],2.2 µM and 1.2 µM
same,hemolysis,human red blood cells,less than 0.5%
same,cytotoxicity,HT1080 cells,less than 5%
Triton X 100 [reference compound],viability,HT1080 cells,20%
OCC(F)(F)F [trifluoroethanol],effect on insulin fibrillation (in words),insulin [6]; ref [23],on binding with insulin trimer prevented the appearance of soluble oligomers; also recorded: could delay the fibrillation of insulin by interfering with the oligomer to monomer dissociation step
O=c1c(O)c(-c2ccc(O)c(O)c2)oc2cc(O)cc(O)c12 [quercetin],effect on insulin fibrillation (in words),insulin [6]; ref [45]–[46],interfered with the dissociation of the oligomeric insulin to monomer and also destabilized preformed insulin fibril
